The nanobody polyreactivity screen of Harvey et al. (2022)

Assay: yeast display, Sf9 membrane polyspecificity reagent, FACS + sequencing; frameworks hold sequencing errors
Summary of the method: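 A synthetic nanobody library was expressed on Saccharomyces cerevisiae BJ5465 by galactose induction for 36–48 hours. The library was stained for 1 hour at 4 °C with 10% biotinylated, detergent-solubilized Sf9 membrane reagent and enriched with streptavidin microbeads before FACS. Low and high (top ~1%) gates were set on anti-HA fluorescence for expression and streptavidin fluorescence for reagent binding, and each polyreactivity label reflects the gate of origin.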

Row | Sequence | polyreactivity (PSR sort gate)
1 | QVQLVESGGGLVQAGGSLRLSCAASGITFRRYAMGWYRPAPGKERELVAVISVSGGRTHYADSVKGRFTISRDNAKNTVYLQMNSLKPEDTAVYYCAAQFSYRYYTDEVGYWGQGTQVTVSS | high polyreactivity
2 | QVQLVESGGGLVQAGGSLRLSCAASGITFRRYAMGWYRQAPGKERELVASITSNGGSTYYADSVKGRFTISRDTAKNTVYLQMNSLKPEDTAVYYFAADFAVGQWLTQTSVEYDYWGQGTQLTVSS | high polyreactivity
3 | QVQLVESGGGLVQAGGSLRLSCAASGITFRRYAMGWYRQAPGKERELVAVISVSGGRTHYADSVKGRFTISRDNAKNTVYLQMNSLKPEDTAVYYCAAQFSYRYYTDEVGYWGQGTQVTVSS | high polyreactivity
4 | QVQLVESGGGLVQAGGSLRLSCAASGITFRSYAMGWYRQAPGKERELVAAIRSGGSTSYADSVKGRFTISRDNAKTTVYLQMNSLKPEDTAVYYCAAGGYVPLPDITFWKFGYWGQGTQVTVSS | low polyreactivity
5 | QVQLVESGGGLVQAGGSLRLSCAASGITFRSYAMGWYRQAPGKERELVAAISSTGRTYYADSVKGRFTISRDNAKNTVYLQMNSLKPEDTAGYYCNAKRYIWGQGTQVTVSS | high polyreactivity
6 | QVQLVESGGGLVQAGGSLRLSCAASGITFRVYAMGWYRQAPGKERELVADISGTGGSTYYADSVKGRFTISRDYAKNTVYLQMNSLKPEDTAVYYCAAVYGFYYSFLQDSYGYWGQGTQVTVSS | low polyreactivity
7 | QVQLVESGGGLVQAGGSLRLSCAASGITFRWNAMGWYRQAPGKERELVAAITTRGGGTYYADSVKGRFTISRDNAKNTVYLQMNSLKPEDTAVYYCGAKKSRYPYNYWGQGTQVTVSS | high polyreactivity
8 | QVQLVESGGGLVQAGGSLRLSCAASGITFRYYAMGWSRQAPWKERELVAVISSTGITNYADSVKGRFTISRDNAKNTVYLQMNSLKPEDTAVYYCAAGLWYSYDYWGQGTQVTVSS | high polyreactivity
9 | QVQLVESGGGLVQAGGSLRLSCAASGITFRYYAMGWYRQAPGKERELVAAISIRGRTYYADSVKGRFTISRDNAKNTVYLQMNSLKPEDTAVYYCAAVKRVVAFDYWGQGTQVTVSS | low polyreactivity
10 | QVQLVESGGGLVQAGGSLRLSCAASGITFRYYTMGWYRQAPGKERELVAAISSSGGSTYYADSVKGRFTISRDNAKNTVYLQMNSLKPEDTAVYYCAAESKYATSSPRRDYWGQGTQVTVSS | high polyreactivity
11 | QVQLVESGGGLVQAGGSLRLSCAASGITFSDNTMGWYRQAPGKERELVAAISWRGGLTYYADSVKGRFTISRDNAKNTVYLQMNSVKPEDTAVYYCIAVTSSKARYSSYDYWGQGTQVTVSS | high polyreactivity
12 | QVQLVESGGGLVQAGGSLRLSCAASGITFSFYTMGWYRQAPGKERELVAAMTQDGGSTYYADSVKGRFTISRDNAKNTVYLQMNSLKPEDTAVYYCASDLVVFVQFDVAVDYYYWGQGTQVTVSS | low polyreactivity
13 | QVQLVESGGGLVQAGGSLRLSCAASGITFSHNAMGWYRQAPGKERELVAVIRWSGGRTYYADSVKGRFTISRDNAKNTVYLQMNSLKPEDTAVYYCAARPSTAFPYGKIMDYWGQGTQVTVSS | low polyreactivity
14 | QVQLVESGGGLVQAGGSLRLSCAASGITFSNSAMGWYRQAPGKERELVASITRRGTRTYYADSVKGRFTISRDNAKNTVYLQMNSLKPEDTAVYYCNRSFYSWIDLIYGGYDYWGQGTQVTVSS | high polyreactivity
15 | QVQLVESGGGLVQAGGSLRLSCAASGITFSRNAMGWYRQAPGTDRELGAVISTRGGRTYYADSVKGRFTISRDNAKNTVYLQMNSLKPEDTAVYYCAASPDPYWRRMDYWGQGTQVTVSS | high polyreactivity
16 | QVQLVESGGGLVQAGGSLRLSCAASGITFSRYAMGWYRQAPGKERELVAAISSGGSTYYADSVKGRFTISRDNAKNPVYLQMNSLKPEDTAVYYCAAVILSRWASYREYYYWGQGTQVTGSS | high polyreactivity
17 | QVQLVESGGGLVQAGGSLRLSCAASGITFSSYAMGWYRQAPGKERELVAAISYGGGNTYYADSVKGRFTISRDNAKNTVYLQMNSLKPEDTAVYYCNTLYTSYSGLDYWGQGTQVTVSS | high polyreactivity
